Laboratory results from PMC2801813 (Biochemistry, 2009).
Where a chain is given by its changes, count along the chain named. Names may count otherwise. “And” between values parts separate entries of the source, which are not always exact repeats. Equal values may be shown once.

Key:
purified protein = substrate: O=C(O)C(=O)O; experiment: purified protein; conditions: buffer and temperature same
SEC = target: the molecule itself; experiment: SEC

B1: OxDC (oxalate decarboxylase) (Bacillus subtilis subsp. subtilis str. 168; E101Q/E280Q) (protein)
chain: MKKQNDIPQPIRGDKGATVKIPRNIERDRQNPDMLVPPETDHGTVSNMKFSFSDTHNRLEKGGYAREVTVRELPISENLASVNMRLKPGAIRELHWHKEAQWAYMIYGSARVTIVDEKGRSFIDDVGEGDLWYFPSGLPHSIQALEEGAEFLLVFDDGSFSENSTFQLTDWLAHTPKEVIAANFGVTKEEISNLPGKEKYIFENQLPGSLKDDIVEGPNGEVPYPFTYRLLEQEPIESEGGKVYIADSTNFKVSKTIASALVTVEPGAMRELHWHPNTHQWQYYISGKARMTVFASDGHARTFNYQAGDVGYVPFAMGHYVENIGDEPLVFLEIFKDDHYADVSLNQWLAMLPETFVQAHLDLGKDFTDVLSKEKHPVVKKKCSK
Purified protein; 0.07 Mn/monomer
  Km: 2.9 ± 0.3 mM
  kcat: 0.012 ± 0.0003 s⁻¹
  kcat/Km: 4 M⁻¹ s⁻¹

B2: OxDC (oxalate decarboxylase) (Bacillus subtilis subsp. subtilis str. 168; E101A) (protein)
chain: B1 chain with Q101A, Q280E
Purified protein; 0.18 Mn/monomer
  Km: 2.9 ± 0.3 mM
  kcat: 0.046 ± 0.002 s⁻¹
  kcat/Km: 16 M⁻¹ s⁻¹

B3: OxDC (oxalate decarboxylase) (Bacillus subtilis subsp. subtilis str. 168; E101D) (protein)
chain: B1 chain with Q101D, Q280E
Purified protein; 0.09 Mn/monomer
  Km: 3.4 ± 0.1 mM
  kcat: 0.49 ± 0.01 s⁻¹
  kcat/Km: 144 M⁻¹ s⁻¹

B4: OxDC (oxalate decarboxylase) (Bacillus subtilis subsp. subtilis str. 168; E101Q) (protein)
chain: B1 chain with Q280E
Purified protein; 0.11 Mn/monomer
  Km: 4.0 ± 0.2 mM
  kcat: 0.62 ± 0.01 s⁻¹
  kcat/Km: 155 M⁻¹ s⁻¹

B5: OxDC (oxalate decarboxylase) (Bacillus subtilis subsp. subtilis str. 168; E280A) (protein)
chain: B1 chain with Q101E, Q280A
Purified protein; 0.67 Mn/monomer
  Km: 3.0 ± 0.2 mM
  kcat: 0.019 ± 0.001 s⁻¹
  kcat/Km: 6 M⁻¹ s⁻¹

B6: OxDC (oxalate decarboxylase) (Bacillus subtilis subsp. subtilis str. 168; E280D) (protein)
chain: B1 chain with Q101E, Q280D
Purified protein; 0.64 Mn/monomer
  Km: 5.4 ± 0.4 mM
  kcat: 0.14 ± 0.01 s⁻¹
  kcat/Km: 26 M⁻¹ s⁻¹

B7: OxDC (oxalate decarboxylase) (Bacillus subtilis subsp. subtilis str. 168; E280Q) (protein)
chain: B1 chain with Q101E
Purified protein; 0.73 Mn/monomer
  Km: 10.1 ± 0.6 mM
  kcat: 0.62 ± 0.01 s⁻¹
  kcat/Km: 61 M⁻¹ s⁻¹

B8: recombinant, wild-type Bacillus subtilis oxalate decarboxylase (enzyme, UniProt O34714 1-385, looked up)
chain: B1 chain with Q101E, Q280E
SEC
  stoichiometry N: 6 and 12 monomers to 18 monomers (2×)
